Test results taken from patent US20220041754A1 (CRISPR THERAPEUTICS, published 2022).
One block for each binder: values may come before it.

Assays:
[1] = biological target: T1, anti-CD70 CAR of SEQ ID NO: 6; test: flow cytometry, antibody dilution 1:50, cell population with about 65.4% anti-CD70 CAR+ cells
T1 construct: also called anti-CD70 CAR T cells; anti-CD70 chimeric antigen receptor

[2] = biological target: T1, anti-CD70 CAR of SEQ ID NO: 6; test: flow cytometry, antibody dilution 1:100, cell population with about 65.4% anti-CD70 CAR+ cells
[3] = biological target: T1, anti-CD70 CAR of SEQ ID NO: 6; test: flow cytometry, antibody dilution 1:200, cell population with about 65.4% anti-CD70 CAR+ cells
[4] = biological target: T1, anti-CD70 CAR of SEQ ID NO: 6; test: flow cytometry, antibody dilution 1:400, cell population with about 65.4% anti-CD70 CAR+ cells
[5] = biological target: T1, anti-CD70 CAR of SEQ ID NO: 6; test: flow cytometry, antibody dilution 1:800, cell population with about 65.4% anti-CD70 CAR+ cells
[6] = biological target: T1, anti-CD70 CAR of SEQ ID NO: 6; test: flow cytometry, antibody dilution 1:1600, cell population with about 65.4% anti-CD70 CAR+ cells
[7] = biological target: T1, anti-CD70 CAR of SEQ ID NO: 6; test: flow cytometry, antibody dilution 1:3200, cell population with about 65.4% anti-CD70 CAR+ cells
[8] = biological target: T1, anti-CD70 CAR of SEQ ID NO: 6; test: flow cytometry, antibody dilution 1:6400, cell population with about 65.4% anti-CD70 CAR+ cells
[9] = biological target: T2, anti-BCMA CAR of SEQ ID NO: 7; test: flow cytometry on anti-BCMA CAR T cells, antibody at fold dilutions 100 to 12800, % CAR positive cells
T2 construct: also called anti-BCMA CAR T cells
T2 sequence (chain, as listed by the source limits assumed): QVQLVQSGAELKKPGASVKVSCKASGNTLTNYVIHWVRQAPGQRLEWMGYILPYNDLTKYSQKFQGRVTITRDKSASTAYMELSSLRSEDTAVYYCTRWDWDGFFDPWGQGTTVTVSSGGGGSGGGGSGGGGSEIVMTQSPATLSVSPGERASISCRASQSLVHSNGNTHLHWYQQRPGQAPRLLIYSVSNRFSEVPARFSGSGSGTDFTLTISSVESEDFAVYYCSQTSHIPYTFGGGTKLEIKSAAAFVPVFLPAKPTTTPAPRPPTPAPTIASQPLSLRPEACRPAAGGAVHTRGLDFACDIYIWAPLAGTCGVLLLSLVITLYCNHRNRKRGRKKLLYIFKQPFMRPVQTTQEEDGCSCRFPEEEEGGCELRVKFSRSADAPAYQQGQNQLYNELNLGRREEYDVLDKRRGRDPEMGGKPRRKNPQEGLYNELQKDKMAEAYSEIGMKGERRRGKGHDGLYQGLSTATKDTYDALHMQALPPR
Experimental: (§1) The purified 20H05-02D09 antibody was analyzed by flow cytometry for binding to CAR T cells expressing the anti-CD70 CAR of SEQ ID NO: 6 (anti-CD70 CAR T cells). CAR T cells expressing an anti-BCMA CAR of SEQ ID NO: 7 (anti-BCMA CAR T cells) or an anti-CD19 CAR SEQ ID NO: 8 (anti-CD19 CAR T cells) were used as negative controls. Anti-CD70-scFv antibody (20H05-02D09) was analyzed at various dilutions (FIG. 2).

[10] = biological target: T3, anti-CD19 CAR SEQ ID NO: 8; test: flow cytometry on anti-CD19 CAR T cells, antibody at fold dilutions 100 to 12800, % CAR positive cells
T3 construct: also called anti-CD19 CAR T cells
Experimental: as §1

T1 sequence (chain, as listed by the source limits assumed): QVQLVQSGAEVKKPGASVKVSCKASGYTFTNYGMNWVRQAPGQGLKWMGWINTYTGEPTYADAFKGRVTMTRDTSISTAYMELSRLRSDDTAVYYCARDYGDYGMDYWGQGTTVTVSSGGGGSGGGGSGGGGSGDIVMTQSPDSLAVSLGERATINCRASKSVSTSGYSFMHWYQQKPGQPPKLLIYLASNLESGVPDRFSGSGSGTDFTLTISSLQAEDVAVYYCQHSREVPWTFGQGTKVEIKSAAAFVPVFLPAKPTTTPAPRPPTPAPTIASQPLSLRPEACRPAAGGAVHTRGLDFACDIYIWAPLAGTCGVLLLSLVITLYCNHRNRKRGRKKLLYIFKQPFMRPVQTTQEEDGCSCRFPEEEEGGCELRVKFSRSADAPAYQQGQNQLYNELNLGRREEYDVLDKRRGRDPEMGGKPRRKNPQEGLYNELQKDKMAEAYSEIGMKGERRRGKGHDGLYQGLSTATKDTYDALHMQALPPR

percentage of anti-CD70 CAR+ cells [1]: 67.7% | percentage of anti-CD70 CAR+ cells [2]: 67.5% | percentage of anti-CD70 CAR+ cells [3]: 68.3% | percentage of anti-CD70 CAR+ cells [4]: 67.2% | percentage of anti-CD70 CAR+ cells [5]: 66.5% | percentage of anti-CD70 CAR+ cells [6]: 65.4% | percentage of anti-CD70 CAR+ cells [7]: 67.8% | percentage of anti-CD70 CAR+ cells [8]: 66.5% | binding result [9]: no binding | binding result [10]: no binding
B1: mouse anti-CD70-scFv monoclonal antibody 20H05-02D09 (antibody, mouse IgG1, kappa, V domains shown)
VH: QIQLVQSGPELKKPGETVKISCKASGYTFTNYGMHWVKQAPGKVLKWMGWINTYSGVPTYPDDFKGRFAFSLETSASTASLQINNLKNEDTATYFCATERLRGWFPFWGQGTLVTVSA
VL: QIVLTQSPAIMSASPGEKVTISCSASSSVSYMYWYQQKPGSSPKPWIYRTSNLASGVPARFSGSGSGTSYSLTISSMEAEDAATYYCQQYHSYPPTFGGGTKLEIKR
notes: also called 20H05-2D09; native 20H05-2D09

percentage of anti-CD70 CAR+ cells [1]: 60.8% | percentage of anti-CD70 CAR+ cells [2]: 61.3% | percentage of anti-CD70 CAR+ cells [3]: 61.7% | percentage of anti-CD70 CAR+ cells [4]: 61.8% | percentage of anti-CD70 CAR+ cells [5]: 61.5% | percentage of anti-CD70 CAR+ cells [6]: 61.4% | percentage of anti-CD70 CAR+ cells [7]: 62.7% | percentage of anti-CD70 CAR+ cells [8]: 62.4%
B2: APC conjugated 20H05 (antibody, mouse IgG1, kappa, V domains shown)
VH: B1 VH
VL: B1 VL
modifications: conjugated with APC (allophycocyanin); site and chain not stated
notes: also called direct APC conjugated antibody

percentage of anti-CD70 CAR+ cells [1]: 66.3% | percentage of anti-CD70 CAR+ cells [2]: 65.9% | percentage of anti-CD70 CAR+ cells [3]: 67.6% | percentage of anti-CD70 CAR+ cells [4]: 66.4% | percentage of anti-CD70 CAR+ cells [5]: 67% | percentage of anti-CD70 CAR+ cells [6]: 66.4% | percentage of anti-CD70 CAR+ cells [7]: 66.2% | percentage of anti-CD70 CAR+ cells [8]: 65.3%
B3: biotin conjugated 20H05 (antibody, mouse IgG1, kappa, V domains shown)
VH: B1 VH
VL: B1 VL
modifications: conjugated with biotin; site and chain not stated
